# According to publication PMC8185552:
# Biological target: murine tenascin-C (murine) (UniProt Q80YX1)
# Test: negative staining transmission electron microscopy; murine TNC with CXCL12 labeled with colloidal gold; gold particles counted along the length of the TNC monomer, 500 TNC molecules
substance,measurement,value
"murine tenascin-C, Q80YX1 23-2110",stoichiometry N,6
